In patent publication US20230357444A1 (published 2023):

Experiments:
[1] = target: T1, human CD3 (native CD3 complex on human T cells) (human, UniProt P07766 23-207); assay: FACS, HPB-ALL
T1 construct: whole, on cells; also called human CD3+ T cell line HPB-ALL; human CD3 positive PBMC

[2] = target: T2, 1-27 CD3-Fc (N-terminal amino acids 1-27 of the mature human CD3 epsilon chain fused to the hinge and Fc … (human)); assay: SPR (Biacore), 1-27 CD3-Fc immobilised
T2 construct: The construct was made with a 19 aa immunoglobulin leader; also called 27 aa huCD3E; human CD3 epsilon (aa 1-27)-Fc fusion protein

T1 sequence (P07766 23-207, one chain of several): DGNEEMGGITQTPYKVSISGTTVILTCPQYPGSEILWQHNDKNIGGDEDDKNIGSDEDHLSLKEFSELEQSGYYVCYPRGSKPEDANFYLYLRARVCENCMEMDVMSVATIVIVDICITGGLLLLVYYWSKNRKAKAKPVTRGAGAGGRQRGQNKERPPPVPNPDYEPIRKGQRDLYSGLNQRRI

Row | binding result [1] | Kd [2] [nM] | Binder
1 | binds | – | MCSP-G4 HLP × E2M HLP (bispecific antibody) QVQLVQSGAEVKRPGASMKVSCKASGYTFTNYYIHWVRQAPGQGLEWMGWINPNSGATNYAQKFQGRVTMTRDTSTSTVYMELSSLRSEDTAVYYCAKSWVSWFASWGQGTLVTVSSGGGGSGGGGSGGGGSELVMTQSPDSLAVSLGERATINCKSSQSVLNSSNNRNYLAWYQQKPGQPPKLLIYWASTRESGVPDRFSGSGSGTDFTLTISGLQAEDVAVYYCQQHYSTPFTFGPGTKVDIKSGGGGSEVQLLESGGGLVQPGGSLKLSCAASGFTFNGYAMNWVRQAPGKGLEWVARIRSKYNNYATYYADSVKERFTISRDDSKNTAYLQMNNLKTEDTAVYYCVRHRNFGNSYLSWFAYWGQGTLVTVSSGGGGSGGGGSGGGGSELVVTQEPSLTVSPGGTVTLTCRSSTGAVTSGYYPNWVQQKPGQAPRGLIGATDMRPSGTPARFSGSLLGGKAALTLSGVQPEDEAEYYCALWYSNRWVFGGGTKLTVLHHHHHH
2 | – | 249 | EGFR-21-63 LH × A2J HLP (bispecific antibody, also called EGFR LH × A2J HLP) DIVLTQSPASLPVSLGQRATISCRASQSVSSSTYSYIHWYQQKPGQPPKLLITYASNLESGVPARFSGSGSGTDFTLDIHPVEEDDSSTYYCQHSWEIPFTFGSGTKLEIKGGGGSGGGGSGGGGSQVQLQQSGPDLVKPGASVKMSCKASGHTFTDCVIIWVKQRAGQGLEWIGQIYPGTGRSYYNEIFKGKATLTADKSSNTVHIQLSSLTSEDSAVYFCALSTLIHGTWFSYWGQGTLVTVSSGGGGSEVQLLESGGGLVQPGGSLKLSCAASGFTFNVYAMNWVRQAPGKGLEWVARIRSKYNNYATYYADSVKKRFTISRDDSKNTAYLQMNNLKTEDTAVYYCVRHGNFGNSYLSWWAYWGQGTLVTVSSGGGGSGGGGSGGGGSELVVTQEPSLTVSPGGTVTLTCRSSTGAVTSGYYPNWVQQKPGQAPRGLIGATDMRPSGTPARFSGSLLGGKAALTLSGVQPEDEAEYYCALWYSNRWVFGGGTKLTVLHHHHHH
3 | – | 2460 | EGFR-21-63 LH × E2M HLP (bispecific antibody, also called EGFR LH × E2M HLP) DIVLTQSPASLPVSLGQRATISCRASQSVSSSTYSYIHWYQQKPGQPPKLLITYASNLESGVPARFSGSGSGTDFTLDIHPVEEDDSSTYYCQHSWEIPFTFGSGTKLEIKGGGGSGGGGSGGGGSQVQLQQSGPDLVKPGASVKMSCKASGHTFTDCVIIWVKQRAGQGLEWIGQIYPGTGRSYYNEIFKGKATLTADKSSNTVHIQLSSLTSEDSAVYFCALSTLIHGTWFSYWGQGTLVTVSSGGGGSEVQLLESGGGLVQPGGSLKLSCAASGFTFNGYAMNWVRQAPGKGLEWVARIRSKYNNYATYYADSVKERFTISRDDSKNTAYLQMNNLKTEDTAVYYCVRHRNFGNSYLSWFAYWGQGTLVTVSSGGGGSGGGGSGGGGSELVVTQEPSLTVSPGGTVTLTCRSSTGAVTSGYYPNWVQQKPGQAPRGLIGATDMRPSGTPARFSGSLLGGKAALTLSGVQPEDEAEYYCALWYSNRWVFGGGTKLTVLHHHHHH
